From article doi:10.1101/2020.07.24.219675

Target: sapC-PUMA (protein chimera of saposin C and the BH3 domain of PUMA)
Experiment: NMR titration

Bcl-xL-ΔTM (Bcl-xL without the transmembrane domain) (domain or fragment)
Kd: < 310 nM
koff: < 310 s⁻¹
stoichiometry N: 1
